Data as given in patent US20200385438A1 (Stanford University, published 2020).

T1: biotinylated recombinant BH3-tagged mIL-2 (mouse, UniProt P04351 21-169, biotinylated with BirA enzyme (on the tag))
T1 construct: Secreted by Hi5 insect cells and immobilized on an SA sensor chip for SPR; also called biotinylated mouse IL-2; biotinylated IL-2; not shown: BH3 tag
T1 sequence (looked up): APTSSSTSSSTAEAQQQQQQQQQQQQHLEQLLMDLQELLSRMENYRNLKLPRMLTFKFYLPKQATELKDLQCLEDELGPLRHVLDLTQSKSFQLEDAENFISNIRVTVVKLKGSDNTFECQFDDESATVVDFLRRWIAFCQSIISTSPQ


Legend:
[1] = biological target: T2, biotinylated recombinant BH3-tagged hIL-2 (human, UniProt P60568 21-153, biotinylated with BirA enzyme (on the tag)); experiment: SPR (Biacore T100), biotinylated hIL-2 immobilised on an SA chip, soluble CD25 flowed over
T2 construct: Secreted by Hi5 insect cells and immobilized on an SA sensor chip for SPR; also called biotinylated human IL-2; biotinylated IL-2; not shown: BH3 tag
T2 sequence (P60568 21-153): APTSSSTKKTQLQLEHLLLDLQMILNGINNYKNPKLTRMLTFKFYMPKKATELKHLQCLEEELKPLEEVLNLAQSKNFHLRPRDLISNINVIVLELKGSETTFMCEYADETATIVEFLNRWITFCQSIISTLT
Source text: (§1) FIG. 4A-4B—Sequences and affinities of high affinity CD25 variants. DNA encoding high affinity variants was extracted after clone screens by yeast plasmid minipreps. Sequences for hCD25 (FIG. 4A) and mCD25 (FIG. 4B) clones are aligned with wild-type (WT) CD25. Residues are the same as WT except as noted, and the EAV sequence is not aligned to WT mCD25 due to differences between species. Consensus mutations for hCD25 are highlighted in blue, and deletions are marked by dashes. Affinity measurements for each clone were determined by surface plasmon resonance.
(§2) Surface plasmon resonance (FIG. 4). Sequences of high-affinity CD25 identified from the clone screens were determined by yeast miniprep (Zymo Research), and cloned into pAcBN vectors for expression in Hi5 cells. Soluble high-affinity CD25 proteins were purified by FPLC. Affinity was measured by surface plasmon resonance (Biacore T100), with biotinylated mouse or human IL-2 immobilized on a SA sensor chip (GE Healthcare). CD25 variants were flowed over the chip and the chip was regenerated between runs.

[2] = biological target: T1, biotinylated recombinant BH3-tagged …; experiment: SPR (Biacore T100), biotinylated mIL-2 immobilised on an SA chip, soluble CD25 flowed over
Source text: as §1, §2

Row | Binder | Kd [1] | Kd [2]
1 | WT (receptor, also called WT hCD25; wild-type human CD25) CD25 (IL-2Rα) chain: ELCDDDPPEIPHATFKAMAYKEGTMLNCECKRGFRRIKSGSLYMLCTGNSSHSSWDNQCQCTSSATRNTTKQVTPQPEEQKERKTTEMQSPMQPVDQASLPGHCREPPPWENEATERIYHFVVGQMVYYQCVQGYRALHRGPAESVCKMTHGKTRWTQPQLICTGEMETSQFPGEEKPQASPEGRPESETSCLVTTTDFQIQTEMAATMETSIFTTE | 2 nM | –
2 | B5 (receptor, also called B5 hCD25) CD25 (IL-2Rα) chain: ELCDDDPPEIPHATFKAMAYKEGTILVCDCKRGFRRIKSGSAYMLCTGNSSHSSWDNQCQCTSSATRNTTKQVTPQPEEQKERKTTEMQSPMQPVDQASLPGHCREPPPWENEATERRYWFVVGQMVYYQCVQGYRALHRGPAESVCKMTHGQTRWTQPQLICTGEMETSQFPGEEKPQASPEGRPESETSCLVTTTDFQIQTEMAATMETSIFTTE | 0.046 nM | –
3 | E8 (receptor, also called E8 hCD25) CD25 (IL-2Rα) chain: EQCDDDPPEIPHATFKAMAYKEGTVLYCECKRGFRRIKSGSAYMLCTGNSSHSSWDNQCQCTSSATRNTTKQVTPQPEEQKERKTTEMQSPMQPVDQASLPGHCREPPPWENEATERRYWFVVGQMVYYQCVQGYRALHRGPAESVCKMTHGKTRWTQPQLICTGEMETSQFPGEEKPQASPEGRPESETSCLVTTTDFQIQTEMAATMETSIFTTE | 0.045 nM | –
4 | F5 (receptor, also called F5 hCD25) CD25 (IL-2Rα) chain: ELCDDDPPEIPHATFKAMAYKEGTLLVCECKRGFRRIKSGSAYMLCTGNSSHSSWDNQCQCTSSATRNTTKQVTPQPEEQKERKTTEMQSPMQPVDQASLPGHCREPPPWENEATERNYMFVVGQMVYYQCVQGYRALHRGPAESVCKMTHGGTRWTQPQLICTGEMETSQFPGEEKPQASPEGRPESETSCLVTTTDFQIQTEMAATMETSIFTTE | 0.086 nM | –
5 | WT (receptor, also called WT mCD25; wild-type mouse CD25) CD25 (IL-2Rα) chain: ELCLYDPPEVPNATFKALSYKNGTILNCECKRGFRRLKELVYMRCLGNSWSSNCQCTSNSHDKSRKQVTAQLEHQKEQQTTTDMQKPTQSMHQENLTGHCREPPPWKHEDSKRIYHFVEGQSVHYECIPGYKALQRGPAISICKMKCGKTGWTQPQLTCVDEREHHRFLASEESQGSRNSSPESETSCPITTTDFPQPTETTAMTETFVLTME | – | 6.9 nM
6 | B4 (receptor, also called B4 mCD25) CD25 (IL-2Rα) chain: ELCLYDPPEVPNATFKALSYKNGTILECRCKRGFRRLKELWIVRCLGNSWSSNCQCTSTSHDKSRKQVTAQLEHQKEQQTTTDMQKPTQSMHQENLTGHCREPPPWKHEDSKREYTFVEGQSVHYECIPGYKALQRGPAISICKMKCGKTGWTQPQLTCVDEREHHRFLASEESQGSRNSSPESETSCPITTTDFPQPTETTAMTETFVLTME | – | 0.46 nM
